Measurements as given in US9290794B2, “Mutant protease biosensors with enhanced detection characteristics” (PROMEGA CORPORATION, priority 2010, dated 2016).

Test system: Caspase-8
Assay: Caspase-8 biosensors transfected into HeLa cells, induction with TRAIL
Assay type: cell-based
Conditions: 1 μg/mL TRAIL, 37° C.
From the text: To evaluate whether the mutant thermostable luciferase biosensors of the present invention can be used to detect Caspase-8 activity in cells, biosensors were generated that contained the Caspase-8 cleavage site, LETDG (SEQ ID NO:15). Two different biosensors, TL-CP358-Caspase-8 and TL-CP233-Caspase-8 were used. As controls, the firefly (Photinus pyralis; Ppy) luciferase biosensors FF-CP234-Caspase-8 (M/Ppy residues 234-544/LETDG/Ppy residues 4-230/V), FF-CP359-Caspase-8 (M/Ppy residues 359-544/LETDG/Ppy residues 4-355/V), and TL-CP358-DEVD.
All biosensors were transfected into HeLa cells. Cells were plated at a (10,000/well) into a 96-well tissue culture plate. […]
After overnight incubation, the media was removed from the cells and replaced with CO2 Independent Media (Invitrogen Cat. No. 18045088) with 2 mM Luciferin EF (Promega Cat. No. E6551). Cells were pre-equilibrated with Luciferin EF for 2 hrs in a Varioskan luminometer with bioluminescence readings taken every 20 min. […] The cells were again incubated at 37° C. in a Varioskan luminometer for 500+ min with bioluminescence measured every 20 min.
FIGS. 5 and 7 identify the kinetic profiles of Caspase 8 activation by TRAIL over time at 37° C. […] Fold induction of activation was calculated by dividing the signal of samples with TRAIL over the signals without trail at a given time point. […]

B1: TL-CP358-Caspase 8: TL Ppe fragments 358-543 and 4-354 with caspase-8 site linker … (SEQ ID NOs:59 and 60) (protein)
chain: MPGSTGKIVPLHAVKVVDPTTGKILGPNEPGELYFKGPMIMKGYYNNEEATKAIIDNDGWLRSGDIAYYDNDGHFYIVDRLKSLIKYKGYQVAPAEIEGILLQHPYIVDAGVTGIPDEAAGELPAAGVVVQTGKYLNEQIVQDYVASQVSTAKWLRGGVKFLDEIPKGSTGKIDRKVLRQMLEKHTNGSSLETDGSSGKNILYGPEPFYPLEDGTAGEQMFDALSRYAAIPGCIALTNAHTKENVLYEEFLKLSCRLAESFKKYGLKQNDTIAVCSENSLQFFLPVIASLYLGIIVAPVNDKYIERELIHSLGIVKPRIVFCSKNTFQKVLNVKSKLKSIETIIILDLNEDLGGYQCLNNFISQNSDSNLDVKKFKPYSFNRDDQVASIMFSSGTTGLPKGVMLTHKNIVARFSIAKDPTFGNAINPTSAILTVIPFHHGFGMMTTLGYFTCGFRVVLMHTFEEKLFLQSLQDYKVESTLLVPTLMAFLAKSALVEKYDLSHLKEIASGGAPLSKEIGEMVKKRFKLNFVRQGYGLTETTSAVLITPKGV
detection of Caspase 8 activation by TRAIL: can detect Caspase 8 activation by TRAIL
